From patent US20050049403A1 (CAMBRIDGE ANTIBODY TECHNOLOGY, published 2005)

Tests used:
hen egg lysozyme = hen egg lysozyme (hen, UniProt P00698 19-147); test: ELISA, antigen coated at 10 µg/ml, anti-human Fc alkaline phosphatase conjugate, OD405 nm [a]
Description: (§1) For both FIG. 13(a) and FIG. 13(b), antigens 1 to 15 were used for coating the plate at a concentration of 10 μg/ml in PBS. The TGFbetas were coated at 0.2 μg/ml in PBS. Coating was performed at 4° C. overnight. […] of each antigen was used per well and duplicates of each antigen for each IgG to be tested. IgG samples were incubated with the coated antigens at 37° C. for 2 hours after blocking with 2%. marvel-PBS. The labelled second antibody was a mouse anti-human Fc1 alkaline phosphatase conjugated and the substrate used to detect bound second antibody was PNPP at 1 mg/ml with the absorbance read at 405 nm.

[1] = molecular target: oxazolone-bovine serum albumin (bovine, UniProt P02769 25-607, oxazolone hapten coupled, sites not stated); test: as above
Description: as §1

human serum albumin = human serum albumin (human, UniProt P02768 25-609); test: as above
Description: as §1

[2] = molecular target: T1, chicken egg white trypsin inhibitor (chicken, UniProt P01005 25-210); test: as above
T1 sequence (looked up): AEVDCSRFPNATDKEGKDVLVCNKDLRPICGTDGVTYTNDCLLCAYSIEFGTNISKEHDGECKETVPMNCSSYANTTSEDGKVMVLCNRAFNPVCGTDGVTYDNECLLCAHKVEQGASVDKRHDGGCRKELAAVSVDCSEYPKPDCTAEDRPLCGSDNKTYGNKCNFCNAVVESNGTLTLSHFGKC
Description: as §1

human insulin = human insulin (human, UniProt P01308 25-54; P01308 90-110, limits assumed); test: as above
Description: as §1

human lymphotoxin (TNFβ) = molecular target: T2, human lymphotoxin (TNFβ) (human, UniProt P01374 35-205, limits assumed); test: as above
T2 sequence (looked up): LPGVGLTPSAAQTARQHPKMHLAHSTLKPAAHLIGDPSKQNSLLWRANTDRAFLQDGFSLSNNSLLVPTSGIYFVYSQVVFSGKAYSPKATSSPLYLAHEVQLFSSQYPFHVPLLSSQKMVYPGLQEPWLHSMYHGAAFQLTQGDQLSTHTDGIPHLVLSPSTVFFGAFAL
Description: as §1

ovalbumin = molecular target: T3, ovalbumin (UniProt P01012 2-386); test: as above
T3 sequence (looked up): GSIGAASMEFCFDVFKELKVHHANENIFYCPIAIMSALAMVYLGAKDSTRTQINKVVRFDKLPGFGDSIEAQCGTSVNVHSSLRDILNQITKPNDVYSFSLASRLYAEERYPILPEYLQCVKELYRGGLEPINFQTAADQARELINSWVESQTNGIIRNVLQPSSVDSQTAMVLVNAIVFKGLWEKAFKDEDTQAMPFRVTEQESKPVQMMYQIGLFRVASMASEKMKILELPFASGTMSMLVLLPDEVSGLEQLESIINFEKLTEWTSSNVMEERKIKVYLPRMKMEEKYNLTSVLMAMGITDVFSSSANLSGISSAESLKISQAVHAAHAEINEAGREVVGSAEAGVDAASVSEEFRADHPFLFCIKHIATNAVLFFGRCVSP
Description: as §1

[3] = molecular target: T4, phage peptide display Clone 3 (WSEFMRQSSL); test: phage ELISA on coated 6B1 IgG4 after four rounds of panning
T4 peptide: WSEFMRQSSL
Description: (§2) Purified 6B1 IgG4 antibody at 10 μg/ml in 4 ml of PBS was coated onto a plastic tube (Nunc; maxisorp) by incubating overnight at 4° C. After washing and blocking with MPBS (see Example 1) an aliquot of the peptide library containing 5×10¹³ phage in 4 ml 3% MPBS was added to the tube and incubated at room temperature for 1.5 hours. The tube was washed 10 times with PBST(0.1%), then 10 times with PBS. Bound phage particles were eluted from the tube by adding 4 ml of 100 mM triethylamine and incubating the tube stationary for 10 minutes at room temperature. The eluted phage were then added to a tube containing 2 ml 1M-Tris.HCl (pH7.4) and 10 ml 2YT broth. The phage were then added to 20ml of logarithmically growing E. coli TG1 cells and grown for 1 hour shaking at 100 rpm at 37° C. The infected cells were then plated on 2YT agar medium with 15 μg/ml tetracycline in 243 mm×243 mm dishes (Nunc). Plates were incubated at 30° C. for 18 hours. Colonies were scraped off the plates into 10 ml 2TY broth containing 15% (v/v) glycerol for storage at −70° C.
(§3) These clones were screened for clones that bound specifically to the antibody 6B1 in ELISA. Cells from the master plates were used to inoculate 96 well tissue culture plates containing 100 μl 2YT broth (containing 15 μg/ml tetracycline) per well and grown overnight with gentle shaking at 100 rpm at 30° C. The plates were then centrifuged at 2000 rpm. The 100 μl phage supernatants from each well were recovered and each was mixed with 100 μl of 4% skimmed milk powder in 2×PBS. 100 μl of each of these was then assayed by phage ELISA. Purified 6B1 IgG4 antibody at 10 μg/ml in PBS was coated onto flexible microtitre plates by incubating overnight at 4° C. Control plates coated with an irrelevant IgG4 antibody at 10 μg/ml were also prepared. The ELISAs were performed as described in Example 1, and visualised with the chromagenic substrate pNPP (Sigma).

[4] = molecular target: T5, phage peptide display clone VESTSLQFRG (fourth clone, printed as Clone 3); test: as above
T5 construct: also called Clone 3 (second of that label)
T5 peptide: VESTSLQFRG
Description: as §2, §3

[5] = molecular target: T6, phage peptide display Clone 2 (DPMDMVLKLC); test: as above
T6 peptide: DPMDMVLKLC
Description: as §2, §3

[6] = molecular target: T7, phage peptide display Clone 1 (RQLSLQQRMH); test: as above
T7 peptide: RQLSLQQRMH
Description: as §2, §3

Chain of human insulin (P01308 25-54 limits assumed, chain 1 of 2): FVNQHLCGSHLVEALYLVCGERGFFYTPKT
Chain of human insulin (P01308 90-110 limits assumed, chain 2 of 2): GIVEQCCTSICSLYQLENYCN
Chain of hen egg lysozyme (P00698 19-147): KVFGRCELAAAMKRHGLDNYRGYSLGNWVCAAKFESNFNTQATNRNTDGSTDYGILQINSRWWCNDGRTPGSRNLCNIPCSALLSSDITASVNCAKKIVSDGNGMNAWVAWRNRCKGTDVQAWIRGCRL
Chain of oxazolone-bovine serum albumin (P02769 25-607 limits assumed): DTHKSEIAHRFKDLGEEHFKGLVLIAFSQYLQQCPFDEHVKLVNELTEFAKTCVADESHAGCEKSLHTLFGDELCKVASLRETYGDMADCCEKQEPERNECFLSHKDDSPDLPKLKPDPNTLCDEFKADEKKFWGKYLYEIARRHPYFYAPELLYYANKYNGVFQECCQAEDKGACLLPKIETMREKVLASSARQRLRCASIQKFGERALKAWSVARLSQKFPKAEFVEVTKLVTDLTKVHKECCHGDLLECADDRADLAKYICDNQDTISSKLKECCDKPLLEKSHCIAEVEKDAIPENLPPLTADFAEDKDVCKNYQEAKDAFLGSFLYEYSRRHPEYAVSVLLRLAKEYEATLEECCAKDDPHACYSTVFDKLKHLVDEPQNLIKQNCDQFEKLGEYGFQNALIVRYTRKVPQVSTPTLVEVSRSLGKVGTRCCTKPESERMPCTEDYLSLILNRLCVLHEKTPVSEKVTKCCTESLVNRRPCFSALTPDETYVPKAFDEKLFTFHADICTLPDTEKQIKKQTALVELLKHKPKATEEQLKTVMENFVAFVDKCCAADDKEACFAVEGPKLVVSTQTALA
Chain of human serum albumin (P02768 25-609 limits assumed): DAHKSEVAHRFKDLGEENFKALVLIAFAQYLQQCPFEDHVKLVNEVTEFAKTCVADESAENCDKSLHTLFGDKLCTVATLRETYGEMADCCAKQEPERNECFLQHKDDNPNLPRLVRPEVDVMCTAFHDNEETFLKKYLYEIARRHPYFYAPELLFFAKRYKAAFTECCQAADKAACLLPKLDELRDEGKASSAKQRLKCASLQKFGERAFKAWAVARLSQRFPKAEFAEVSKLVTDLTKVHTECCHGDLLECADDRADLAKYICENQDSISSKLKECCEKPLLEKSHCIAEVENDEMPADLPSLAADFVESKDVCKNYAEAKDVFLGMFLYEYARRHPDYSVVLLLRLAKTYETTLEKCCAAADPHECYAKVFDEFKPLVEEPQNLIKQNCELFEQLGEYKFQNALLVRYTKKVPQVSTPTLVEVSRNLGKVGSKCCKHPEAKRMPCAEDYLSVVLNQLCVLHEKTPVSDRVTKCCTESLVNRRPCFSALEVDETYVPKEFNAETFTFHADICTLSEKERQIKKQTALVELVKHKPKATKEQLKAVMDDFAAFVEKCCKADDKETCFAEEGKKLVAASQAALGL

B1: 6B1 IgG4 (antibody, V domains shown)
VH: EVQLVESGGGVVQPGRSLRLSCAASGFTFSSYGMHWVRQAPGKGLEWVAVIWYDGSNKYYADSVKGRFTISRDNSKNTLYLQMDSLRAEDTAVYYCGRTLESSLWGQGTLVTVSS
VL: SSELTQDPAVSVALGQTVRITCQGDSLRSYYASWYQQKPGQAPVLVIYGKNNRPSGIPDRFSGSSSGNTASLTITGAQAEDEADYYCNSRDSSSTHRGVFGGGTKLTVLG
notes: Whole antibody: human gamma 4 and human lambda constant regions; FITC-labelled in the human tissue study; also called antibody 6B1
- binding result (hen egg lysozyme): no binding
- binding result [1]: no binding
- binding result (human serum albumin): no binding
- binding result [2]: no binding
- binding result (human insulin): no binding
- binding result (human lymphotoxin (TNFβ)): no binding
- binding result (ovalbumin): no binding
- binding result [3]: binds
- binding result [4]: binds
- binding result [5]: binds
- binding result [6]: binds
